Assay results reported in article PMC10819093.

Tests used:
[1] = target: HIV-1 gp41 protein (surface plasmon resonance) (HIV-1); assay: SPR; BIAcore 3000; HIV-1 proteins amine coupled to CM-5 chips (50 µg/mL in 20 mM sodium acetate); serially diluted antibody injected at 30 µL/minute for about 100 s in HBS (10 mM HEPES, 150 mM NaCl, 3 mM EDTA)
[2] = target: HIV-1 gp120 protein (surface plasmon resonance) (HIV-1); assay: as above

Kd [1] [nM] | Kd [2] [nM] | Substance
6.12 |  | trispecific antibody iMab + PRO140 + 10E8
 | 0.46 | trispecific antibody iMab + PRO140 + PGDM1400
 | 0.59 | trispecific antibody iMab + PRO140 + PGT121
